± gives the uncertainty stated by the source.

The series in a line: amyloid nucleation score (Sup35N fusion, yeast selection) (log enrichment); library NNK1; higher = more nucleation; inactive = no reads after selection. In a few lines:
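The nucleation score is a DiMSum log enrichment of output over input reads, centred on the mode score of non-aggregating sequences. Sequences under 100 input reads were excluded, and reads came from Illumina sequencing of plasmid inserts. Psi-negative yeast expressing Sup35N fused to peptides of 20 random codons were induced with 100 μM copper sulfate for 24 hours and grown 7 days at 30°C on medium lacking adenine and uracil. Random libraries had three technical output replicates.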
In turn, LLFLSMMVSASCC yielded an amyloid nucleation score of 1.09 ± 0.39.
The value for FCNNAPRQEWPILN was -1.31 ± 0.49.
Regarding ENARHRCDQ, the amyloid nucleation score turned out to be 0.571 ± 0.38.
SLVSPRCSKMMFWGLPGVMM: the amyloid nucleation score was 0.088 ± 0.29.
In turn, TSHSGIEFRLEFARSSPPSQ registered an amyloid nucleation score of -0.161 ± 0.66.
The value for MNASITFSVLWVACETKCRV was 3.42 ± 0.14; that for GWIRPVAKSRLWSFSPMEMI was -0.768 ± 0.62.
Consider PTGVMM, for which the amyloid nucleation score is -0.338 ± 0.51.
With MTAIFSRSSQNFFVGW, the amyloid nucleation score was determined as 7.154 ± 0.066.
For the substance SGAPESYGDTNRRIVSSCFL, the amyloid nucleation score result is “inactive”.
In turn, VMCVTIMSVFWNGLRNVEAM yielded an amyloid nucleation score of 0.977 ± 0.18.
Regarding LHERRYSLLSLESLIHNKSC, the amyloid nucleation score was -0.752 ± 0.61.
The substance PLNHNSY registered an amyloid nucleation score of 1.47 ± 0.51.
The value for YYIEVLILCWACQNALSRAS was 0.5 ± 0.9.
Consider KCGRVWHVFFVVSYQGVGST, for which the amyloid nucleation score came out at 1.31 ± 0.46.
SQDGISMMLGMSGWRGHASV: the amyloid nucleation score was determined as 0.659 ± 1.
Consider IWCSVNEWQYRVKVV, for which the amyloid nucleation score was 0.03 ± 0.5.
As for SKTSEGLLLYVISYRNYYGP, the figure is 0.671 ± 0.4; as for YRRNIIL, -0.368 ± 0.4; as for IFCITGAGLLDRCSSRTLAS, -0.175 ± 0.41.
In turn, VYLKEEHGKFAGGPSPRCKP gave an amyloid nucleation score of 0.274 ± 0.46.
Take DGKKYTVMSFSEQSK: the amyloid nucleation score is -0.368 ± 1.7.
The value for VSPIMFAYSMSCMSFYGEHG was 5.04 ± 0.1.
Substance KSLFVLVWTLLLPT returned an amyloid nucleation score of -0.223 ± 0.35.
As to LIHVRCSLVQCANSELQGAG, the amyloid nucleation score came to 2.65 ± 0.28.
LDDAWRVWMHSL registered an amyloid nucleation score of 0.981 ± 0.43.
NAGMSLRTFSLYSSWLIVPV returned an amyloid nucleation score of 0.179 ± 1.
With ELVKFIVRADNDSWVGRASV, the amyloid nucleation score turned out to be 0.267 ± 0.93.
For the substance STLDLLCYFRREADQTINKR, the amyloid nucleation score is 0.336 ± 0.36.
In the case of FTAKSL, the amyloid nucleation score is -0.324 ± 0.38.
Consider VKSSFNMSARVVLDENIHER, for which the amyloid nucleation score is -0.067 ± 0.69.
As for RLMDTYAEAHTQDRDMIRDV, the figure is 0.286 ± 0.49.
In turn, EKVGLTCQRGIVLVDNIFMQ gave an amyloid nucleation score of 6.986 ± 0.045.
For the substance ITYINLSSSYKIPRPTHMRI, the amyloid nucleation score came out at 6.07 ± 0.065.
SLILFV showed an amyloid nucleation score of 0.856 ± 0.45.
Take ATAHCWLRQESGEFGDLWIP: the amyloid nucleation score turned out to be 0.276 ± 0.19.
The substance GSSTVNL showed an amyloid nucleation score of -0.345 ± 1.7.
Substance SAILVLFEVHFMAPLLCHYL came in with an amyloid nucleation score of 0.208 ± 0.42.
Consider EIQGPVRT, for which the amyloid nucleation score is -0.233 ± 0.59.
PLCLNRVMISAMGVRVR had an amyloid nucleation score of -0.285 ± 0.73.
Substance GAKEDERSNWSVVNMLGREL showed an amyloid nucleation score of -0.341 ± 0.39.
As to TFTFVFW, the amyloid nucleation score was found to be 3.46 ± 0.13.
Take CCYDPNGLAKNKTW: the amyloid nucleation score is -0.013 ± 0.65.
RGTWNDMASGEEVVAFIGEY gave an amyloid nucleation score of 0.51 ± 0.35.
As for DPMHYL, the figure is 4.55 ± 0.098; as for AIDIYGYLRFPCWLRVLFT, -1.06 ± 0.45; as for GRMSRMILD, -0.407 ± 0.69.
The substance YVEKVSFTAIEWWRGQLQSV gave an amyloid nucleation score of 0.565 ± 0.47.
Regarding NLGAMWLNVVPVYLKWVAL, the amyloid nucleation score was -0.095 ± 0.32.
As for LGKIAQLYSEEVEQKSGSGV, the figure is -0.539 ± 0.42; as for LYSAGRCYARSCVKL, 0.829 ± 0.27; as for LMYQSFRLTGSYVVIFLYES, -0.543 ± 1.1.
As for FPNVDNNV, the entry is “inactive”; as for WWSRTLSLLE, -0.035 ± 0.32; as for TYYKQYVLMYRALNFAGSWS, 1.21 ± 0.79.
Regarding WTISSKGFFCWINCGLLQKR, the amyloid nucleation score was found to be 5.704 ± 0.05.
IYCSCPSKQE gave an amyloid nucleation score of -0.075 ± 0.24.
With SKFTYRV, the amyloid nucleation score was -0.302 ± 0.38.
Regarding IHDAYVTESGYWVDV, the amyloid nucleation score is 1.29 ± 0.66.
Turning to KMGYFE, the amyloid nucleation score stood at 0.915 ± 0.45.
In turn, IRRSIGVRAPWTFSEEDGSS came in with an amyloid nucleation score of 0.6 ± 0.79.
Take ATTLGCQWDWKWSAFGAWLQ: the amyloid nucleation score is -1.08 ± 1.1.
The substance GVMPWLR came in with an amyloid nucleation score of -0.123 ± 0.99.
Substance SHRRGVKSTFLMRRLHYMWY returned an amyloid nucleation score of 0.168 ± 0.62.
In turn, MICMD yielded an amyloid nucleation score of -0.27 ± 0.3.
The value for RLRSMAAP was 0.513 ± 0.66.
Take EDTWVLLSHYHFNSMLSLLM: the amyloid nucleation score stood at 0.161 ± 0.26.
As to HCYHGRGADR, the amyloid nucleation score turned out to be 0.181 ± 0.74.
The value for VSEDVFLWVKLSLTAGSEGR was -0.973 ± 0.4; that for AVNYIADFGTVDRCCITFPL was 0.645 ± 0.4.
GQWGVVHIQQGVQYCATIRG yielded an amyloid nucleation score of 0.331 ± 0.69.
Turning to LSLNSHYCDDCVWLFR, the amyloid nucleation score is 1.02 ± 0.45.
ICKLRNSTGSTRIT registered an amyloid nucleation score of 0.227 ± 0.45.
PGVSDPYLDECKVTFKI registered an amyloid nucleation score of 0.715 ± 0.31.
Take YGQMVIFGPVMLMAVLTW: the amyloid nucleation score came to 3.33 ± 0.093.
SVGGVAGEF displayed an amyloid nucleation score of -0.087 ± 0.96.
NSKRTGASLRIELRLQFRKR had an amyloid nucleation score of -0.215 ± 0.39.
In turn, AMMPLVLNQVVFDVAALTNR came in with an amyloid nucleation score of 7.68 ± 0.054.
The substance SSSSML yielded an amyloid nucleation score of -0.202 ± 0.47.
Substance FYTISFLAIIATENIFCSSS yielded an amyloid nucleation score of 4.42 ± 0.053.
The substance VAAFEIMHLLISCDNRCRFQ gave an amyloid nucleation score of 0.337 ± 0.38.
As for TFVVELS, the figure is -1.64 ± 2.4; as for NMVSCGDALR, -0.554 ± 1.7; as for WVKCLPGGLQAFWYS, -0.369 ± 1.
As for DFLRIRVAKKSLDMGFIV, the figure is -0.251 ± 0.36; as for DWQSVRKFLRSVVIRMVSLV, -0.399 ± 0.24; as for VNYFARSGASKICML, -0.366 ± 0.88.
The value for ICNPGVS was 0.71 ± 0.8; that for ICCISKILLFCISM was 6.53 ± 0.091.
In turn, GAKFSTVSRENDDMHFAWLW returned an amyloid nucleation score of 1.19 ± 0.97.
With GYGQCSGSYAGSGGT, the amyloid nucleation score turned out to be 0.715 ± 0.57.
In the case of FFGHAEDFLYMIRVHAGNNL, the amyloid nucleation score is -0.379 ± 0.41.
The value for MICAQSVS was 0.991 ± 0.24.
Substance LGFLRLFKKYVFYACCDVYS yielded an amyloid nucleation score of -0.175 ± 0.84.
MYLITGKIARNAKTDSPGSN came in with an amyloid nucleation score of -0.52 ± 0.68.
As for YYSGGFIMVVHLWSVELRFR, the figure is 0.23 ± 0.9; as for PFLYIDSF, -1.2 ± 1.9.
On to NEVMRFLSTCCMWIIHTSKV, for which the amyloid nucleation score result is “inactive”.
Consider QLCGVVK, for which the amyloid nucleation score is -1.07 ± 1.6.
As for QLFMHPRGIMKGLF, the figure is 0.581 ± 0.52; as for GTDRSLAVIFKARCWFWATR, -1.14 ± 1.7; as for FWSYSMP, “inactive”.
The value for SNHDNFYPVVLCMESKYNIE was 0.302 ± 0.34; that for CRLFYSWNVNMYRNMLLRWI was -0.767 ± 0.33; that for TRVFSCDACRKN was “inactive”.
As for VPSLRYYLYGSFFVI, the amyloid nucleation score is -2.49 ± 1.7.
In turn, AVLRRYQFVYDLSYLYEDFL showed an amyloid nucleation score of -0.836 ± 0.48.
In turn, LFLGGVIVHSQLCMTVGCCF displayed an amyloid nucleation score of 6.54 ± 0.079.
As for VRFKGMWHKQ, the figure is -1.04 ± 1.1; as for SYISLSLISFSVGGSSHFSM, 6.96 ± 0.077; as for MILHLDVSISIVLD, 1.58 ± 0.15.
As for FSVARFGWFLVSALLQGWDR, the figure is -0.142 ± 0.55; as for TMQFFHERGYLLKSRYAGAW, -0.273 ± 0.98; as for HCRFWRTFDGSNGRNIENSD, 0.986 ± 1.1.
YGINMWRYLGNQEEATIVFL registered an amyloid nucleation score of 0.244 ± 0.3.
In turn, GSCDYRFYNQLGEWNGYRMA displayed an amyloid nucleation score of -0.348 ± 0.49.
With FVWIWYCPIYHCEVLARSPR, the amyloid nucleation score is -0.614 ± 0.83.
As to EITVAVSDYGVGSTWSG, the amyloid nucleation score is 0.381 ± 0.84.
The substance VRIRPISPMPDYSPPANWSK showed an amyloid nucleation score of 0.041 ± 0.47.
Regarding GLLMISISYLITRMVFMDNI, the amyloid nucleation score worked out at 0.412 ± 0.39.
In the case of FLCMPL, the amyloid nucleation score stood at 0.266 ± 0.41.
As to YFDWTRVGYNYGSILLPVEA, the amyloid nucleation score came to 0.135 ± 0.51.
In turn, WQRNDQWMVVQVITVSV had an amyloid nucleation score of 0.176 ± 0.47.
On to GLWQWAIHLRWIGIEHTQTR, for which the amyloid nucleation score stood at 0.295 ± 0.97.
TVNRMIFFMRLLYTRVKL yielded an amyloid nucleation score of -1.68 ± 2.7.
For AVVKAVVNGRILFYRTREVS, the amyloid nucleation score is 0.226 ± 0.58.
For FTFYYCIRY, the amyloid nucleation score was found to be 0.673 ± 0.47.
The substance NIGVMVLVLDARKDKRFGKI registered an amyloid nucleation score of 7.65 ± 0.082.
The value for ASSGSVGVLNLATHTTVKWQ was 4.04 ± 0.14; that for VFYVCFNAKLPLLGYFDLKV was “inactive”.
The substance PCSSVLLEHWSRYASRCEMV came in with an amyloid nucleation score of 1.28 ± 0.58.
As for KFRSKLWNYFFACVEPATHP, the figure is -0.013 ± 0.72; as for IPPCWLTGLFNQYMNWTRS, -0.134 ± 0.31; as for PNIRHYVYNHN, “inactive”.
As for GLSGSLSSVIYSSEVRSR, the figure is 0.036 ± 0.29.
The value for DSVVFSWVTYNTSSLSYHCG was 2.41 ± 0.2.
With DLEPWWACLAKGSSGLISYV, the amyloid nucleation score was 0.396 ± 0.38.
In turn, SYVPANY had an amyloid nucleation score of -1.82 ± 1.1.
For the substance FDVYFSVPFFTLLYNDPKWF, the amyloid nucleation score turned out to be 2.35 ± 0.12.
LSGVLGSVAFAYIRPRTGFG gave an amyloid nucleation score of -0.143 ± 1.2.
In the case of DAVQLMSCCMTISGPTKNRA, the amyloid nucleation score was determined as 0.184 ± 0.56.

For the origin of these results see the supplement of paper PMC12042874.
